Data reported in patent US20260250318A1, “COMPOSITIONS AND METHODS FOR CROSSING THE BLOOD BRAIN BARRIER” (VOYAGER THERAPEUTICS, INC., priority 2022, published 2026).

T1: human ALPL expressed on cells (alkaline phosphatase tissue-nonspecific isozyme, NM_000478.4) (human, UniProt P05186 18-501)
T1 sequence: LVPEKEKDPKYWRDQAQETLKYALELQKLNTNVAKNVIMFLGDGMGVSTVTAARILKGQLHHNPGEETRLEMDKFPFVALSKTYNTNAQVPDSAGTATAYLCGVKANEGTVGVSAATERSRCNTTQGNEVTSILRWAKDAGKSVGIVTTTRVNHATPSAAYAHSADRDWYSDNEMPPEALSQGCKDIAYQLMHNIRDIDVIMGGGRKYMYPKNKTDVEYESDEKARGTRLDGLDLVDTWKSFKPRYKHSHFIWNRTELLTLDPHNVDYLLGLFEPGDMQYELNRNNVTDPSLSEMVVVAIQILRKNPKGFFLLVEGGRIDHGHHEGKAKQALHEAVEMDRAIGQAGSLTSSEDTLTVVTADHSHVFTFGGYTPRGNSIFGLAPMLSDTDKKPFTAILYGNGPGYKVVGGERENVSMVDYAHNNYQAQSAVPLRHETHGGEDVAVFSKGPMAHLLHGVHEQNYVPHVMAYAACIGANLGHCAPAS

T2: murine ALPL ortholog expressed on HEK 293T cells (NM_001287172.1) (mouse, UniProt P09242 18-501)
T2 sequence: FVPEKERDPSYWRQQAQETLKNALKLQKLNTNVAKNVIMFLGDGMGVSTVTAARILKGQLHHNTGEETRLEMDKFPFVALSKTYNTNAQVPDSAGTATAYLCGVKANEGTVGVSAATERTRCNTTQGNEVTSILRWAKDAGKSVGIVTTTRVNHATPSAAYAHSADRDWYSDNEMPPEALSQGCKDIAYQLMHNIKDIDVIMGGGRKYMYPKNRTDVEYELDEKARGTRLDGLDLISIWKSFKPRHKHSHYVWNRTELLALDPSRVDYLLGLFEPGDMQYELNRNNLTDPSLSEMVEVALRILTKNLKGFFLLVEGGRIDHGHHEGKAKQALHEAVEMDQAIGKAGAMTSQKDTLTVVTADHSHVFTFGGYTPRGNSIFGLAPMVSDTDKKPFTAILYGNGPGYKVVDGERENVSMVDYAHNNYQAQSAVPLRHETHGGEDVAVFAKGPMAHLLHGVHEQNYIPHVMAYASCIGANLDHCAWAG

T3: His-tagged ALPL (Homo sapiens, UniProt P05186)
T3 sequence (P05186 18-501): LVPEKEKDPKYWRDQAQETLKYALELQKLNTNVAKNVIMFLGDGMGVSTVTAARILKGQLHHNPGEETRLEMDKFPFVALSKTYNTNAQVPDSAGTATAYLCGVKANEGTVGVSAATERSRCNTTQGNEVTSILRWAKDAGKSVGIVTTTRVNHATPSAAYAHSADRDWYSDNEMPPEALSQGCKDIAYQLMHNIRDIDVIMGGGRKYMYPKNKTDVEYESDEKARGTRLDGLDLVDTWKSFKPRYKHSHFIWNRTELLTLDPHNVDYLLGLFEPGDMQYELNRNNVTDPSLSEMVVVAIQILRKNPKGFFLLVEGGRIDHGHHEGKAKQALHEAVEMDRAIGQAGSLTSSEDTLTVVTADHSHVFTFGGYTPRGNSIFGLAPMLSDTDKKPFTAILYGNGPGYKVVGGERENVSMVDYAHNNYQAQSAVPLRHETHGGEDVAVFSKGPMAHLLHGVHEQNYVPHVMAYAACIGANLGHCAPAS

T4: ALPL (Homo sapiens, UniProt P05186)
T4 sequence (P05186 18-501): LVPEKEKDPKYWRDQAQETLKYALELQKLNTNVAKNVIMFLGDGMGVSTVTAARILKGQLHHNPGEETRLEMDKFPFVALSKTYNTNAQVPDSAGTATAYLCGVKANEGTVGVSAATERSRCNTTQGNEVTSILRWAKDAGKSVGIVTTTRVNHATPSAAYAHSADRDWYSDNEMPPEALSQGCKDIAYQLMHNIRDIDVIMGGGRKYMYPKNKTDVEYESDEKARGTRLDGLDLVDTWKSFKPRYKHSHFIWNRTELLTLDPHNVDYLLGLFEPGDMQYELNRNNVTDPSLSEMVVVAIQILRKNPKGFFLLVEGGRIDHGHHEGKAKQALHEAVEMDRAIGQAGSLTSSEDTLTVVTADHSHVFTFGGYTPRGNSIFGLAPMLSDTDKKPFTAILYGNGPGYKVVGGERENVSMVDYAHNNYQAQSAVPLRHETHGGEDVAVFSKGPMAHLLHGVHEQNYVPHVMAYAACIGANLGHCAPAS


Experiments:
[1] = molecular target: T1, human ALPL expressed on cells (alkaline …); assay: cell-based or functional assay
[2] = molecular target: T2, murine ALPL ortholog expressed on HEK …; assay: cell-based or functional assay
[3] = molecular target: T1, human ALPL expressed on cells (alkaline …); assay: cell-based or functional assay; remark: listed apart in the source
[4] = molecular target: T1, human ALPL expressed on cells (alkaline …); assay: binding/internalization: AAV incubated 2 or 3 h with ALPL transfected HEK 293T cells, washed, viral genomes quantified
His-tagged ALPL = molecular target: T3, His-tagged ALPL; assay: SPR pH dependence of capsid-ALPL interaction; assay type: binding; details: association at pH 7.4, dissociation at pH 7.4 or 5.5
Excerpt: The TTM-002 capsid variant was immobilized on the CM5 sensor chip. His-tagged ALPL and buffer was then passed over the AAV9 control or TTM-002 capsid variant to monitor the rate of association at pH 7.4 and dissociation, respectively, at a pH of 7.4 (FIG. 3A) or a pH of 5.5 (FIG. 3B).

ALPL = molecular target: T4, ALPL; assay: Transcytosis assay of AAV particles in MDCK cells engineered to overexpress ALPL; assay type: cell-based; design: expressed in transfected cells; host or cells: MDCK (Madin-Darby Canine Kidney) cells; details: qPCR of bottom chamber

| Molecule | luciferase activity, fold change relative to pCMV6 transfected HEK 293T cells (ALPL transfected cells) [1] [fold] | fold change in luciferase activity relative to the pCMV6 control cells (cells transfected with murine ALPL protein) [2] [fold] | fold change in luciferase activity relative to the pCMV6 control cells (cells transfected with human ALPL protein) [3] [fold] | fold change in viral gene expression (2^-ΔΔCT) relative to pCMV6 transfected cells [4] [fold] | rate of dissociation from ALPL, pH 7.4 vs 5.5 (His-tagged ALPL) | transcytosis in MDCK cells that did not express ALPL (ALPL) |
| --- | --- | --- | --- | --- | --- | --- |
| TTM-002 capsid variant (AAV particle comprising the TTM-002 AAV9 capsid variant) (other) chain 1: MAADGYLPDWLEDNLSEGIREWWALKPGAPQPKANQQHQDNARGLVLPGYKYLGPGNGLDKGEPVNAADAAALEHDKAYDQQLKAGDNPYLKYNHADAEFQERLKEDTSFGGNLGRAVFQAKKRLLEPLGLVEEAAKTAPGKKRPVEQSPQEPDSSAGIGKSGAQPAKKRLNFGQTGDTESVPDPQPIGEPPAAPSGVGSLTMASGGGAPVADNNEGADGVGSSSGNWHCDSQWLGDRVITTSTRTWALPTYNNHLYKQISNSTSGGSSNDNAYFGYSTPWGYFDFNRFHCHFSPRDWQRLINNNWGFRPKRLNFKLFNIQVKEVTDNNGVKTIANNLTSTVQVFTDSDYQLPYVLGSAHEGCLPPFPADVFMIPQYGYLTLNDGSQAVGRSSFYCLEYFPSQMLRTGNNFQFSYEFENVPFHSSYAHSQSLDRLMNPLIDQYLYYLSKTINGHDSPHKSGQNQQTLKFSVAGPSNMAVQGRNYIPGPSYRQQRVSTTVTQNNNSEFAWPGASSWALNGRNSLMNPGPAMASHKEGEDRFFPLSGSLIFGKQGTGRDNVDADKVMITNEEEIKTTNPVATESYGQVATNHQSAQAQAQTGWVQNQGILPGMVWQDRDVYLQGPIWAKIPHTDGNFHPSPLMGGFGMKHPPPQILIKNTPVPADPPTAFNKDKLNSFITQYSTGQVSVEIEWELQKENSKRWNPEIQYTSNYYKSNNVEFAVNTEGVYSEPRPIGTRYLTRNL chain 2: TAPGKKRPVEQSPQEPDSSAGIGKSGAQPAKKRLNFGQTGDTESVPDPQPIGEPPAAPSGVGSLTMASGGGAPVADNNEGADGVGSSSGNWHCDSQWLGDRVITTSTRTWALPTYNNHLYKQISNSTSGGSSNDNAYFGYSTPWGYFDFNRFHCHFSPRDWQRLINNNWGFRPKRLNFKLFNIQVKEVTDNNGVKTIANNLTSTVQVFTDSDYQLPYVLGSAHEGCLPPFPADVFMIPQYGYLTLNDGSQAVGRSSFYCLEYFPSQMLRTGNNFQFSYEFENVPFHSSYAHSQSLDRLMNPLIDQYLYYLSKTINGHDSPHKSGQNQQTLKFSVAGPSNMAVQGRNYIPGPSYRQQRVSTTVTQNNNSEFAWPGASSWALNGRNSLMNPGPAMASHKEGEDRFFPLSGSLIFGKQGTGRDNVDADKVMITNEEEIKTTNPVATESYGQVATNHQSAQAQAQTGWVQNQGILPGMVWQDRDVYLQGPIWAKIPHTDGNFHPSPLMGGFGMKHPPPQILIKNTPVPADPPTAFNKDKLNSFITQYSTGQVSVEIEWELQKENSKRWNPEIQYTSNYYKSNNVEFAVNTEGVYSEPRPIGTRYLTRNL chain 3: MASGGGAPVADNNEGADGVGSSSGNWHCDSQWLGDRVITTSTRTWALPTYNNHLYKQISNSTSGGSSNDNAYFGYSTPWGYFDFNRFHCHFSPRDWQRLINNNWGFRPKRLNFKLFNIQVKEVTDNNGVKTIANNLTSTVQVFTDSDYQLPYVLGSAHEGCLPPFPADVFMIPQYGYLTLNDGSQAVGRSSFYCLEYFPSQMLRTGNNFQFSYEFENVPFHSSYAHSQSLDRLMNPLIDQYLYYLSKTINGHDSPHKSGQNQQTLKFSVAGPSNMAVQGRNYIPGPSYRQQRVSTTVTQNNNSEFAWPGASSWALNGRNSLMNPGPAMASHKEGEDRFFPLSGSLIFGKQGTGRDNVDADKVMITNEEEIKTTNPVATESYGQVATNHQSAQAQAQTGWVQNQGILPGMVWQDRDVYLQGPIWAKIPHTDGNFHPSPLMGGFGMKHPPPQILIKNTPVPADPPTAFNKDKLNSFITQYSTGQVSVEIEWELQKENSKRWNPEIQYTSNYYKSNNVEFAVNTEGVYSEPRPIGTRYLTRNL | 166 | 24 | 24 | 5.92 |  |  |
| TTM-002: AAV9 capsid variant comprising HDSPHK (SEQ ID NO: 2) in loop IV (protein) chain 1: MAADGYLPDWLEDNLSEGIREWWALKPGAPQPKANQQHQDNARGLVLPGYKYLGPGNGLDKGEPVNAADAAALEHDKAYDQQLKAGDNPYLKYNHADAEFQERLKEDTSFGGNLGRAVFQAKKRLLEPLGLVEEAAKTAPGKKRPVEQSPQEPDSSAGIGKSGAQPAKKRLNFGQTGDTESVPDPQPIGEPPAAPSGVGSLTMASGGGAPVADNNEGADGVGSSSGNWHCDSQWLGDRVITTSTRTWALPTYNNHLYKQISNSTSGGSSNDNAYFGYSTPWGYFDFNRFHCHFSPRDWQRLINNNWGFRPKRLNFKLFNIQVKEVTDNNGVKTIANNLTSTVQVFTDSDYQLPYVLGSAHEGCLPPFPADVFMIPQYGYLTLNDGSQAVGRSSFYCLEYFPSQMLRTGNNFQFSYEFENVPFHSSYAHSQSLDRLMNPLIDQYLYYLSKTINGHDSPHKSGQNQQTLKFSVAGPSNMAVQGRNYIPGPSYRQQRVSTTVTQNNNSEFAWPGASSWALNGRNSLMNPGPAMASHKEGEDRFFPLSGSLIFGKQGTGRDNVDADKVMITNEEEIKTTNPVATESYGQVATNHQSAQAQAQTGWVQNQGILPGMVWQDRDVYLQGPIWAKIPHTDGNFHPSPLMGGFGMKHPPPQILIKNTPVPADPPTAFNKDKLNSFITQYSTGQVSVEIEWELQKENSKRWNPEIQYTSNYYKSNNVEFAVNTEGVYSEPRPIGTRYLTRNL chain 2: GHDSPHKSGQNQQT |  |  |  |  | increased when the pH was decreased from 7.4 to 5.5 | No transcytosis was observed |
